Patent US20220347267A1, “METHODS TO IMPROVE PATIENT RESPONSE TO IMMUNE CHECKPOINT INHIBITORS AND FUNCTIONAL TESTS TO PREDICT RESPONSE” (Biomarker Strategies, LLC, priority 2019, published 2022)

Assays:
Format in all cases: cell-based, human
H292 cells = assay: PD-L1 western blot after modulators (EM and MTAs); details: NSCLC H292, 30 minutes, 3 hours, 24 hours
From the text: (§1) Cell lines were acquired from ATCC, Sigma, or DSMZ. Human non-small cell lung carcinoma (NSCLC) cell lines H292 (ATCC no. CRL-1848.), H1299 (ATCC no. CRL-5803), H520 (ATCC no. CRL-5811), CALU6 (ATCC no. HTB-56), H1975 (ATCC no. CRL-5908), H460 (ATCC no. HTB-177), H2126 (ATCC no. CCL-256), H1650 (ATCC no. CRL-5883), and H2087 (ATCC no. CRL-5922) were used for this experiment along with head and neck squamous cell carcinoma (HNSCC) cell lines BHY (DSMZ ACC 404), CAL27 (ATCC no. CRL-2095), KYSE410 (Sigma), and A253 (ATCC no. HTB-41), melanoma cell lines A375 (ATCC no. CRL-1619), COL0853 (Sigma), and MM127 (Sigma) pancreatic cancer cell lines BXPC3 (ATCC no. CRL-1687), colorectal cancer cell lines […], HCT116 (ATCC no. CCL-247EMT), and breast cancer cell lines BT549 (ATCC no. HTB-122), BT20 (ATCC no. HTB-19), and T47D (ATCC no. HTB-133). Cells were maintained in manufacturer-recommended conditions at 37° C. inside humidified 5% CO2 incubators. Sub-cultivation and harvesting for all cell lines were performed using Accutase (GIBCO Life Technologies; cat. no. A1110501) at 37° C. for 10 minutes. Cell viability was measured using trypan blue exclusion staining in conjunction with the Countess II Automated Cell Counter (Thermo Fischer Scientific; cat. no. AMQAX1000). Measurements were made in duplicate and the average number of viable cells was recorded prior to experiments.
(§2) T7039), and IL-10 (50 ng/ml; Sigma Aldrich cat. no. SRP3071) were administered to cell lines for various times including 30 minutes, 3 hour, and 24 hour time intervals prior to cell lysis and protein extraction.
(§3) To determine the effects of the aforementioned molecules on the modulation of PD-L1, we selected various NSCLC, HNSCC, breast cancer, melanoma, colorectal cancer, and pancreatic cancer cell lines as examples. Other diseases or cell lines could be used readily as could more complex samples such as cells isolated from xenografts and clinical samples. Cells were plated, for three different time points (30 minutes, 3 hours, and 24 hours), inside 6-well petri dishes with 2 mL of appropriate medium. Plates were incubated for 24 hours in 5% CO2 incubators at 37° C. After 24 hours, each 6-well plate was washed with PBS (Gibco Life Technologies, cat. no. 10010023) followed by fresh media being added along with each cell line's vehicle control or appropriate modulator for each specific time point, and were placed in CO2 incubators until their modulation time point was reached. Other conditions can be readily used, such as processing on automated systems such as SnapPath. At the end of each time point, while keeping plates on ice, cell lysis was conducted by aspirating culture medium from each plate, washing of each plate three times with 5 ml of cold PBS (Gibco Life Technologies, cat. no. 10010023) and culminated with the addition of cold 1× lysis buffer containing (Cell Signaling, cat. no. 9803 S) protease inhibitor cocktail (Cell Signaling, cat. no. 5871S), phosphatase inhibitor cocktail (Cell Signaling, cat. no. 5870S), and PMSF (Fisher Scientific, cat. no. ICN19538101). Plates were then placed on ice for ten minutes, swirling each plate intermittently. Aliquots of protein lysates were prepared and then stored at −80° C. until protein quantification and Western blot analysis was to be conducted. The protein concentration of each lysate was analyzed by using the Pierce 660 Protein Assay Reagent (Thermo Fisher Scientific, cat. no. 22660) and testing of each sample was conducted in duplicate. Two μg of protein was then loaded per lane into 10% Midi-PROTEAN TGX Precast Gels (Bio Rad, cat. no. 5671034) along with Kaleidoscope Prestained Protein Standard (BioRad, cat. no. 1610375) which ran at 220V for 45 minutes. Proteins were transferred to mini-PVDF membranes (BioRad, cat. no. 1704156) in 3 minutes using the Trans-Blot Turbo Transfer System (BioRad, cat. no. 1704150EDU).

BT549 cells = assay: PD-L1 western blot after modulators (EM and MTAs); details: Breast BT549, 30 minutes, 3 hours, 24 hours
From the text: as §1, §2, §3

H1650 cells = assay: PD-L1 western blot after modulators (EM and MTAs); details: NSCLC H1650, 30 minutes, 3 hours, 24 hours
From the text: as §1, §2, §3

BT20 cells = assay: PD-L1 western blot after modulators (EM and MTAs); details: Breast BT20, 30 minutes, 3 hours, 24 hours
From the text: as §1
(§4) Enhancer Molecule and Therapies: IFNγ, (10 ng/ml; Sigma Aldrich, cat.no 11040596001), TNFα (10 ng/ml; BD Biosciences cat. no. 554618), Osimertinib (100 ng/ml; Selleckchem cat.no. S7297), Everolimus (100 ng/ml; Selleckchem cat.no S1120), GSK458 (10 ng/ml; Selleckchem cat. no. S2658), TNFb (50 ng/ml; Sigma Aldrich cat. no.), GSK795 (1,000 ng/ml; Selleckchem cat. no. S7492), IL-12 (50 ng/ml; Sigma Aldrich SRP3073), GM-CSF (50 ng/ml; Sigma Aldrich cat. no. G5035), IL-1a (1 ng/ml; Sigma Aldrich cat. no. 12778-), IL-6 (50 ng/ml; Sigma Aldrich), IL-17 (100 ng/ml; Sigma Aldrich cat. no. SRP3080), TGFb (1 ng/ml; Sigma Aldrich cat. no. T7039), and IL-10 (50 ng/ml; Sigma Aldrich cat. no. SRP3071) were administered to cell lines for various times including 30 minutes, 3 hour, and 24 hour time intervals prior to cell lysis and protein extraction.
as §3, with “The protein concentration of each lysate was analyzed by using the Pierce 660 Protein Assay Reagent (Thermo Fisher Scientific, cat. no. 22660) and testing of each sample was conducted in duplicate. Two μg of protein was then loaded per lane into 10% Midi-PROTEAN TGX Precast Gels (Bio Rad, cat. no. 5671034) along with Kaleidoscope Prestained Protein Standard (BioRad, cat. no. 1610375) which ran at 220V for 45 minutes. Proteins were transferred to mini-PVDF membranes (BioRad, cat. no. 1704156) in 3 minutes using the Trans-Blot Turbo Transfer System (BioRad, cat. no. 1704150EDU).” left out

H1975 cells = assay: PD-L1 western blot after modulators (EM and MTAs); details: NSCLC H1975, 30 minutes, 3 hours, 24 hours
From the text: as §1, §4
as §3, with “The protein concentration of each lysate was analyzed by using the Pierce 660 Protein Assay Reagent (Thermo Fisher Scientific, cat. no. 22660) and testing of each sample was conducted in duplicate. Two μg of protein was then loaded per lane into 10% Midi-PROTEAN TGX Precast Gels (Bio Rad, cat. no. 5671034) along with Kaleidoscope Prestained Protein Standard (BioRad, cat. no. 1610375) which ran at 220V for 45 minutes. Proteins were transferred to mini-PVDF membranes (BioRad, cat. no. 1704156) in 3 minutes using the Trans-Blot Turbo Transfer System (BioRad, cat. no. 1704150EDU).” left out

H2126 cells = assay: PD-L1 western blot after modulators (EM and MTAs); details: NSCLC H2126, 30 minutes, 3 hours, 24 hours
From the text: as §1, §4
as §3, with “The protein concentration of each lysate was analyzed by using the Pierce 660 Protein Assay Reagent (Thermo Fisher Scientific, cat. no. 22660) and testing of each sample was conducted in duplicate. Two μg of protein was then loaded per lane into 10% Midi-PROTEAN TGX Precast Gels (Bio Rad, cat. no. 5671034) along with Kaleidoscope Prestained Protein Standard (BioRad, cat. no. 1610375) which ran at 220V for 45 minutes. Proteins were transferred to mini-PVDF membranes (BioRad, cat. no. 1704156) in 3 minutes using the Trans-Blot Turbo Transfer System (BioRad, cat. no. 1704150EDU).” left out

KYSE410 cells = assay: PD-L1 western blot after modulators (EM and MTAs); details: Head and neck KYSE410, 30 minutes, 3 hours, 24 hours
From the text: as §1, §4
as §3, with “The protein concentration of each lysate was analyzed by using the Pierce 660 Protein Assay Reagent (Thermo Fisher Scientific, cat. no. 22660) and testing of each sample was conducted in duplicate. Two μg of protein was then loaded per lane into 10% Midi-PROTEAN TGX Precast Gels (Bio Rad, cat. no. 5671034) along with Kaleidoscope Prestained Protein Standard (BioRad, cat. no. 1610375) which ran at 220V for 45 minutes. Proteins were transferred to mini-PVDF membranes (BioRad, cat. no. 1704156) in 3 minutes using the Trans-Blot Turbo Transfer System (BioRad, cat. no. 1704150EDU).” left out

[1] = test system: various NSCLC, HNSCC, breast cancer, melanoma, colorectal cancer, and pancreatic cancer cell lines; assay: PD-L1 western blot after modulators, summary over all samples; details: depending on the sample, summary of Table 3
From the text: as §1, §2, §3

B1: IL1a: interleukin modulator, 1 ng/ml; Sigma Aldrich (protein, UniProt P01583 113-271, looked up)
Interleukin-1 alpha: SAPFSFLSNVKYNFMRIIKYEFILNDALNQSIIRANDQYLTAAALHNLDEAVKFDMGAYKSSKDDAKITVILRISKTQLYVTAQDEDQPVLLKEMPEIPKTITGSETNLLFFWETHGTKNYFTSVAHPNLFIATKQDYWVCLAGGPPSITDFQILENQA
PD-L1 Response (H292 cells): Up
PD-L1 Response (BT549 cells): Up
PD-L1 Response (H1650 cells): Up
PD-L1 Response (BT20 cells): Up
PD-L1 Response (H1975 cells): Up
PD-L1 Response (H2126 cells): Up
PD-L1 Response (KYSE410 cells): Up
regulation of PD-L1 across samples [1]: only led to upregulation
